In the supplement of paper PMC6757056:
± gives the standard deviation of the averaged measurements.

B1: library; a variant is named by its letters at N, in order (parent)
chain: GCUGUCACCGGUGUAUUACCCUAGUGGUCGACCGGUCUGAUGAGUCUNNNNNNAGACGAAACAGC

Experiments:
hypoxanthine [1] = variants of: B1; experiment: normalized RNA/DNA level with ligand (relative to sTRSVctl = 100) (log10 (% of sTRSVctl)); ligand: hypoxanthine (xanthine aptamer); higher = less ribozyme self-cleavage, higher mRNA level; conditions: ligand concentration (+) RNA-Seq: 5 mM, HEK293T, reporter: mCherry (pCS4076), ligand present: yes
Method in brief: (§1)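 For each 6-well well, 4 µg of library plasmid encoding mCherry-linked ribozyme switches, or eGFP-linked ones in some ligand experiments, was transfected into HEK293T. Any ligand was added 1 h before transfection, and RNA was extracted with EDTA 72 h after it, then reverse-transcribed, amplified, barcoded and sequenced. RNA level was obtained by dividing RNA reads by DNA reads, normalizing to a spiked-in non-cleaving sequence or to the top sequences, then scaling and log-transforming. The top set was 25 sequences, scaling was ×100 with log10, and ≥100 DNA reads were required.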

hypoxanthine [2] = variants of: B1; experiment: normalized RNA/DNA level without ligand (relative to sTRSVctl = 100) (log10 (% of sTRSVctl)); ligand: hypoxanthine (xanthine aptamer); higher = less ribozyme self-cleavage, higher mRNA level; conditions: HEK293T, reporter: mCherry (pCS4076), ligand present: no
Method in brief: as §1

Row | Variant | normalized RNA/DNA level with ligand (log10) (hypoxanthine [1]) | normalized RNA/DNA level without ligand (log10) (hypoxanthine [2])
1 | GCUGUCACCGGUGUAUUACCCUAGUGGUCGACCGGUCUGAUGAGUCUCGUCCAAGACGAAACAGC [CGUCCA] | 1.957 ± 0.0057 | 1.924 ± 0.0032
2 | GCUGUCACCGGUGUAUUACCCUAGUGGUCGACCGGUCUGAUGAGUCUCGUCCCAGACGAAACAGC [CGUCCC] | 1.97 ± 0.051 | 1.98 ± 0.064
3 | GCUGUCACCGGUGUAUUACCCUAGUGGUCGACCGGUCUGAUGAGUCUUGUCAGAGACGAAACAGC [UGUCAG] | 1.89 ± 0.03 | 1.74 ± 0.07
4 | GCUGUCACCGGUGUAUUACCCUAGUGGUCGACCGGUCUGAUGAGUCUUGUCAAAGACGAAACAGC [UGUCAA] | 1.9 ± 0.035 | 1.79 ± 0.019
5 | GCUGUCACCGGUGUAUUACCCUAGUGGUCGACCGGUCUGAUGAGUCUUGUCACAGACGAAACAGC [UGUCAC] | 1.9615 ± 0.00089 | 1.885 ± 0.012
6 | GCUGUCACCGGUGUAUUACCCUAGUGGUCGACCGGUCUGAUGAGUCUUGUCAUAGACGAAACAGC [UGUCAU] | 1.939 ± 0.01 | 1.823 ± 0.0053
7 | GCUGUCACCGGUGUAUUACCCUAGUGGUCGACCGGUCUGAUGAGUCUUGUAUUAGACGAAACAGC [UGUAUU] | 1.95 ± 0.056 | 1.8992 ± 0.0009
8 | GCUGUCACCGGUGUAUUACCCUAGUGGUCGACCGGUCUGAUGAGUCUGGUCCCAGACGAAACAGC [GGUCCC] | 1.92 ± 0.05 | 1.902 ± 0.0045
9 | GCUGUCACCGGUGUAUUACCCUAGUGGUCGACCGGUCUGAUGAGUCUCGUCACAGACGAAACAGC [CGUCAC] | 1.96 ± 0.044 | 1.92 ± 0.024
10 | GCUGUCACCGGUGUAUUACCCUAGUGGUCGACCGGUCUGAUGAGUCUCGUCAUAGACGAAACAGC [CGUCAU] | 1.931 ± 0.0026 | 1.92 ± 0.029
11 | GCUGUCACCGGUGUAUUACCCUAGUGGUCGACCGGUCUGAUGAGUCUAGUAUUAGACGAAACAGC [AGUAUU] | 1.922 ± 0.015 | 1.86 ± 0.037
12 | GCUGUCACCGGUGUAUUACCCUAGUGGUCGACCGGUCUGAUGAGUCUGGUCAGAGACGAAACAGC [GGUCAG] | 1.94 ± 0.023 | 1.69 ± 0.012
13 | GCUGUCACCGGUGUAUUACCCUAGUGGUCGACCGGUCUGAUGAGUCUGGUCAAAGACGAAACAGC [GGUCAA] | 1.94 ± 0.036 | 1.83 ± 0.034
14 | GCUGUCACCGGUGUAUUACCCUAGUGGUCGACCGGUCUGAUGAGUCUGGUCAUAGACGAAACAGC [GGUCAU] | 1.94 ± 0.037 | 1.89 ± 0.041
15 | GCUGUCACCGGUGUAUUACCCUAGUGGUCGACCGGUCUGAUGAGUCUAGUCCAAGACGAAACAGC [AGUCCA] | 1.95 ± 0.05 | 1.868 ± 0.015
16 | GCUGUCACCGGUGUAUUACCCUAGUGGUCGACCGGUCUGAUGAGUCUAGUCCCAGACGAAACAGC [AGUCCC] | 1.94 ± 0.026 | 1.931 ± 0.012
17 | GCUGUCACCGGUGUAUUACCCUAGUGGUCGACCGGUCUGAUGAGUCUGGUAUUAGACGAAACAGC [GGUAUU] | 1.973 ± 0.0023 | 1.88 ± 0.085
18 | GCUGUCACCGGUGUAUUACCCUAGUGGUCGACCGGUCUGAUGAGUCUAGUCACAGACGAAACAGC [AGUCAC] | 1.94 ± 0.06 | 1.883 ± 0.014
19 | GCUGUCACCGGUGUAUUACCCUAGUGGUCGACCGGUCUGAUGAGUCUAGUCAGAGACGAAACAGC [AGUCAG] | 1.86 ± 0.13 | 1.64 ± 0.041
20 | GCUGUCACCGGUGUAUUACCCUAGUGGUCGACCGGUCUGAUGAGUCUAGUCAAAGACGAAACAGC [AGUCAA] | 1.89 ± 0.051 | 1.8 ± 0.035
21 | GCUGUCACCGGUGUAUUACCCUAGUGGUCGACCGGUCUGAUGAGUCUUGUCCAAGACGAAACAGC [UGUCCA] | 1.89 ± 0.061 | 1.88 ± 0.057
